Among the data in the Immune Epitope Database (IEDB) are IC50 and Kd values, retold here.

Test [1] deals with HLA-B*15:01. Briefly: IEDB peptide-MHC binding, purified MHC/competitive/fluorescence; ≥ and ≤ were set here for values at or beyond the usual limits of such assays. Conditions: source organism: Zaire ebolavirus.
For test [2], the target named is HLA-A*24:02. The test is described as above. Conditions: source organism: Zaire ebolavirus.
Test [3] addresses HLA-B*08:01. The test is described as above. Conditions: source organism: Zaire ebolavirus.
Test [4] addresses HLA-B*27:05. Kind of test: IEDB peptide-MHC binding, purified MHC/direct/fluorescence; filed as Kd, often an IC50 or EC50 that approximates it; ≥ and ≤ were set here for values at or beyond the usual limits of such assays.
The target in test [5] is HLA-A*30:01. Described as above.
Test [6] concerns the target HLA-B*15:01. Described as above.
Test [7] deals with HLA-A*26:01. The test is described as above.
In test [8] the target is HLA-A*03:01. The description is as above.
Test [9] concerns the target HLA-B*40:01. The test is described as above.
In test [10] the target is HLA-B*35:01. The test is described as above.
Test [11] addresses HLA-A*31:01. The description is as above.
The target of test [12] is HLA-A*24:03. The description is as above.
Test [13] concerns the target HLA-B*58:01. The test is described as above.
Test [14] concerns the target HLA-A*02:01. The test is described as above.
In test [15] the target is HLA-A*01:01. The description is as above.
Test [16] addresses HLA-B*44:02. Described as above.
Test [17] deals with HLA-B*08:01. The description is as above.
Test [18] addresses HLA-A*69:01. Described as above.
The target of test [19] is HLA-B*07:02. The description is as above.
The target of test [20] is HLA-A*11:01. The description is as above.
The target of test [21] is HLA-A*02:01. Kind of test: IEDB peptide-MHC binding, purified MHC/competitive/fluorescence; ≥ and ≤ were set here for values at or beyond the usual limits of such assays. Conditions: source organism: Zaire ebolavirus.
In test [22] the target is HLA-B*07:02. Kind of test: IEDB peptide-MHC binding, purified MHC/competitive/fluorescence; filed as Kd, often an IC50 or EC50 that approximates it; ≥ and ≤ were set here for values at or beyond the usual limits of such assays.
The target of test [23] is HLA-B*51:01. Described as above. Conditions: source organism: Escherichia coli O139:H28 str. E24377A.
Test [24] deals with HLA-C*15:02. Kind of test: IEDB peptide-MHC binding, purified MHC/direct/fluorescence; filed as Kd, often an IC50 or EC50 that approximates it; ≥ and ≤ were set here for values at or beyond the usual limits of such assays.
For test [25], the target named is HLA-B*58:01. Kind of test: IEDB peptide-MHC binding, purified MHC/competitive/fluorescence; filed as Kd, often an IC50 or EC50 that approximates it; ≥ and ≤ were set here for values at or beyond the usual limits of such assays.
Test [26] addresses HLA-A*26:01. The test is described as above. Conditions: source organism: Salmonella enterica subsp. enterica serovar Typhi.
In test [27] the target is HLA-A*03:01. The test is described as above.
Test [28] has as its target HLA-B*07:02. Briefly: IEDB peptide-MHC binding, purified MHC/competitive/fluorescence; ≥ and ≤ were set here for values at or beyond the usual limits of such assays. Conditions: source organism: Zaire ebolavirus.
Test [29] concerns the target HLA-C*12:03. Briefly: IEDB peptide-MHC binding, purified MHC/direct/fluorescence; filed as Kd, often an IC50 or EC50 that approximates it; ≥ and ≤ were set here for values at or beyond the usual limits of such assays.
For test [30], the target named is HLA-C*03:03. Described as above.
The target in test [31] is HLA-C*05:01. Described as above.
Test [32] concerns the target HLA-A*80:01. Described as above.
Test [33] deals with HLA-A*29:02. Briefly: IEDB peptide-MHC binding, purified MHC/competitive/fluorescence; filed as Kd, often an IC50 or EC50 that approximates it; ≥ and ≤ were set here for values at or beyond the usual limits of such assays. Conditions: source organism: Mus musculus.
In test [34] the target is HLA-A*01:01. Described as above. Conditions: source organism: Mus musculus.
Test [35] has as its target HLA-C*14:02. Briefly: IEDB peptide-MHC binding, purified MHC/direct/fluorescence; filed as Kd, often an IC50 or EC50 that approximates it; ≥ and ≤ were set here for values at or beyond the usual limits of such assays. Conditions: source organism: Mycobacterium tuberculosis H37Rv.
Setting [36] is: source organism: Coxiella burnetii.
Where [37] appears, read: source organism: Salmonella enterica.
Where [38] appears, read: source organism: Salmonella enterica subsp. enterica serovar Typhi.
Where [39] appears, read: source organism: Shigella flexneri 5 str. 8401.
Setting [40] is: source organism: human gammaherpesvirus 4.
Where [41] appears, read: source organism: Vibrio parahaemolyticus.
Setting [42] is: source organism: Mycobacterium tuberculosis H37Rv.

Turning to PVMNHKNKF, the values for the half-maximal inhibitory concentration (IC50) in [1], in [2] and in test [3] were at least 364 µM, 0.106 µM and 11 µM, respectively.

Turning to VMKRNFIDF, the Kd was at least 20 µM in test [4] (setting [36]); 3.63 µM in test [5] (setting [36]); 0.0844 µM in test [6] (setting [36]); at least 20 µM in test [7] (setting [36]); at least 20 µM in test [8] (setting [36]); at least 20 µM in [9] (setting [36]). For the same sequence, the Kd is 1.13 µM in [10] (setting [36]); at least 20 µM in test [11] (setting [36]); 4.91 µM in [12] (setting [36]); at least 20 µM in [13] (setting [36]); at least 20 µM in test [14] (setting [36]); at least 20 µM in [15] (setting [36]). Also, the Kd in test [16] (setting [36]) is at least 20 µM; in test [17] (setting [36]), 2.25 µM; in test [18] (setting [36]) it was at least 20 µM.

Take VPQTDAGVT: the Kd is at least 20 µM in test [4] (setting [37]); 1.89 µM in test [19] (setting [38]); 4.4 µM in test [5] (setting [38]); at least 20 µM in test [6] (setting [37]); at least 20 µM in [7] (setting [37]); at least 20 µM in [8] (setting [37]). The Kd in test [20] (setting [38]) was 2.9 µM; in test [9] (setting [37]) it was at least 20 µM; in test [10] (setting [38]) it was 0.888 µM; in test [11] (setting [38]), 0.592 µM; in test [12] (setting [38]), 1.27 µM; in test [13] (setting [38]), at least 10 µM. Further, the Kd in test [14] (setting [37]), in test [15] (setting [37]), in test [16] (setting [37]), in test [17] (setting [37]) and in test [18] (setting [37]) was at least 20 µM each time.

As to SDMDYHKIL, the IC50 was at least 145 µM in test [2], at least 241 µM in test [21] and at least 177 µM in test [3].

Turning to LPRDASQIT, the Kd in test [22] (source organism: Escherichia coli O139:H28 str. E24377A) was 0.0974 µM; in test [23], at least 20 µM.

With KVHLTPAQL, the Kd in [22] (setting [39]) is 0.154 µM; in [24] (setting [39]), at least 20 µM.

ATVKGMQSY had a Kd in [25] (setting [40]) of 4.38 µM.

On to ITLKVFAGY, for which the Kd was found to be 0.287 µM in test [26], 2.69 µM in test [27] (setting [38]) and 0.0116 µM in test [25] (setting [38]).

Turning to RTAKVKNEV, the IC50 is 10.3 µM in test [28], at least 75.3 µM in test [2], 57.2 µM in test [21] and 56.8 µM in [3].

Turning to YMNGTMSQV, the Kd amounted to 0.372 µM in test [24] (source organism: Homo sapiens), 0.088 µM in test [29] (source organism: Homo sapiens) and 0.371 µM in [30] (source organism: Homo sapiens).

LLDEPTNNL: the Kd is 0.007 µM in test [31] (source organism: Bifidobacterium longum DJO10A) and 0.0883 µM in test [18] (source organism: Burkholderia mallei).

VVEKQSGLY returned a Kd in [32] (source organism: West Nile virus) of 0.0008 µM.

As to AAVDNAVVV, in test [29] (source organism: Leishmania major strain Friedlin), the Kd is at most 0.001 µM.

As for DQFSIPIRY, the Kd is at least 20 µM in test [4] (setting [41]); at least 20 µM in [19] (setting [41]); 8.36 µM in [5] (setting [41]); 0.579 µM in [6] (setting [41]); at least 20 µM in test [7] (setting [41]); at least 20 µM in test [8] (setting [41]). In addition, the Kd in test [20] (setting [41]), in [9] (setting [41]), in test [11] (setting [41]), in test [13] (setting [41]), in test [14] (setting [41]) and in [15] (setting [41]) was at least 20 µM throughout. Moreover, the Kd in test [16] (setting [41]), in test [17] (setting [41]) and in test [18] (setting [41]) was at least 20 µM throughout.

In the case of AFFAERLYY, the Kd in [33] was 0.0002 µM; in test [34] it was at least 20 µM; in [32] (source organism: Mus musculus), 0.0195 µM.

Turning to ILLARLFLY, the results for the Kd in test [27] (setting [40]) and in [32] (setting [40]) were 2.06 µM and 0.0033 µM, respectively.

For AAAANTTAL, the Kd in [35] was 0.607 µM; in [30] (setting [42]), at most 0.001 µM; in [31] (setting [42]), 1.68 µM.
